Data reported in the supplement of paper PMC10065799, “High-throughput profiling of sequence recognition by tyrosine kinases and SH2 domains using bacterial peptide display” (eLife, 2023).

Assays:
Grb2 SH2 = Grb2 SH2 (UniProt P62993); assay: SH2 binding enrichment of the phosphorylated peptide, bacterial display (enrichment ratio); higher = better substrate or ligand; peptides without Tyr show the background
SHP2-C SH2 = assay: as above
c-Src SH2 = assay: as above
Fyn = Fyn (UniProt P06241); assay: phosphorylation enrichment, bacterial display (enrichment ratio); higher = better substrate or ligand; peptides without Tyr show the background
Sequence of Fyn (P06241 whole entry, looked up): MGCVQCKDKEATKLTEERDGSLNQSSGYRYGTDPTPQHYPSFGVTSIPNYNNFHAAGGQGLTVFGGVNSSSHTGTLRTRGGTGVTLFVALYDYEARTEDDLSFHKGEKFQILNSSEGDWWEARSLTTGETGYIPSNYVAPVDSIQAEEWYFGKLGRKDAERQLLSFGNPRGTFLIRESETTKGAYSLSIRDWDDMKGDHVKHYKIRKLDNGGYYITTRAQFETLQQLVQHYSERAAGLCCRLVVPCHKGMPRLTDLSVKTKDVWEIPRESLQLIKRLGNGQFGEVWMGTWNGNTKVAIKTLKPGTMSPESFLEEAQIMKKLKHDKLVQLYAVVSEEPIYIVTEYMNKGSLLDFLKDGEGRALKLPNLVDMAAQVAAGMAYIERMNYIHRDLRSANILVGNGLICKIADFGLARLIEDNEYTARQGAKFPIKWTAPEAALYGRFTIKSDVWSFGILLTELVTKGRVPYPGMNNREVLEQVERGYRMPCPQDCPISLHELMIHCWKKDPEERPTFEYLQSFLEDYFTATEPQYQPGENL

c-Abl (mouse) = assay: as above
EPHB2 = EPHB2 (UniProt P29323); assay: as above
FGFR3 = FGFR3 (UniProt P22607); assay: as above
c-Src = assay: as above
Fer (mouse) = assay: as above
Fes = Fes (UniProt P07332); assay: as above
AncSZ = assay: as above
MERTK = MERTK (UniProt Q12866); assay: as above
Sequence of MERTK (Q12866 whole entry, looked up): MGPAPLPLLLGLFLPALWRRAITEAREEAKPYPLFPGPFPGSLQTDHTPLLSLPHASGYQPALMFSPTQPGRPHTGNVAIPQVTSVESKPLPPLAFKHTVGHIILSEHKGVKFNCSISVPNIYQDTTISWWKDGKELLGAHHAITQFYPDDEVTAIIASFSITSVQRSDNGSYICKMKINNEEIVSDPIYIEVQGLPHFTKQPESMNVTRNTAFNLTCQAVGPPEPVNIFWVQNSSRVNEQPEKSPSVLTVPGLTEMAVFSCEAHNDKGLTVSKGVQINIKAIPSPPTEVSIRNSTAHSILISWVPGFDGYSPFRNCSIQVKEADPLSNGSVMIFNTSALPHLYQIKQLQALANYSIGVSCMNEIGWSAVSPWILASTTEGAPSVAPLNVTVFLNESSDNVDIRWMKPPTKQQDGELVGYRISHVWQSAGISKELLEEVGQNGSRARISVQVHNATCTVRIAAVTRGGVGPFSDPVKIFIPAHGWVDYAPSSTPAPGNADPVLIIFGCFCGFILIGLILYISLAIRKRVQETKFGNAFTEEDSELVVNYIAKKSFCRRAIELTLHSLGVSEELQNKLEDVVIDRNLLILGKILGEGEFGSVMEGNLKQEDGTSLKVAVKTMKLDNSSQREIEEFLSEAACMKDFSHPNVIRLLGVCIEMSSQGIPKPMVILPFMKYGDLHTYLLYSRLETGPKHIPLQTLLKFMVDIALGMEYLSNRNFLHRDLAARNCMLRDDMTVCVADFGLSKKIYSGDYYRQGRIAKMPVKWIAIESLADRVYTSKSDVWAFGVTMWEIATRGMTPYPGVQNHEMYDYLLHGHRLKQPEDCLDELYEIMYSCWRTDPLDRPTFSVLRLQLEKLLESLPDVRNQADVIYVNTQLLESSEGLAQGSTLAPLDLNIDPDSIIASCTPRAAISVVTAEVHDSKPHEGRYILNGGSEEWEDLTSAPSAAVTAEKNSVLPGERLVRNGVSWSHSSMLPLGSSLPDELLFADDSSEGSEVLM

EPHB1 = EPHB1 (UniProt P54762); assay: as above
Sequence of EPHB1 (P54762 whole entry, looked up): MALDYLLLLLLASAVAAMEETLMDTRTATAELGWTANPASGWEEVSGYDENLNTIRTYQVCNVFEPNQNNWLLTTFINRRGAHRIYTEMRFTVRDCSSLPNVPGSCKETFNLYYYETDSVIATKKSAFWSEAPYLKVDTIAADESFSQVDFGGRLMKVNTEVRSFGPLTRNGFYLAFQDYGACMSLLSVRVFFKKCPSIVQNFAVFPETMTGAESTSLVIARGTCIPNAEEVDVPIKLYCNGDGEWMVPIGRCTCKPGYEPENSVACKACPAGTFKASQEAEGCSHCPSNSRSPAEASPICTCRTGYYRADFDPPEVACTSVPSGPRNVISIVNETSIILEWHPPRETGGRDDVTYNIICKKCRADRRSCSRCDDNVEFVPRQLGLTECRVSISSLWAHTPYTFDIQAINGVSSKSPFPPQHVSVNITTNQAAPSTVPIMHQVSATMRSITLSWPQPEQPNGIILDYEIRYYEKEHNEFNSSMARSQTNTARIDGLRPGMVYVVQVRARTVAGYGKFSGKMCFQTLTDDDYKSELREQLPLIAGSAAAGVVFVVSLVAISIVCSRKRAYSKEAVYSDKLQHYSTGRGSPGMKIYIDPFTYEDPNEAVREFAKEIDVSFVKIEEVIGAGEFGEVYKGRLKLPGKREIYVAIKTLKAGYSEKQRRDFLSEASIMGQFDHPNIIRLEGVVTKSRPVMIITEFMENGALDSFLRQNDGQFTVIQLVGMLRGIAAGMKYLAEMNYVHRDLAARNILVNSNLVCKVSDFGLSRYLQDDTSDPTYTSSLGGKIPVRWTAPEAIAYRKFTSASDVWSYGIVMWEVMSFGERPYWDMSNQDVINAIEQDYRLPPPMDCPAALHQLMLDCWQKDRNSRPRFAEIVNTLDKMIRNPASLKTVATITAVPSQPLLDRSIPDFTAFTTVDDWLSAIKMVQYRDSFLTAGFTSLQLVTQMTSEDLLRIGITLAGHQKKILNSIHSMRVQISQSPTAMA

Jak2 = Jak2 (UniProt O60674); assay: as above
Sequence of Jak2 (O60674 whole entry, looked up): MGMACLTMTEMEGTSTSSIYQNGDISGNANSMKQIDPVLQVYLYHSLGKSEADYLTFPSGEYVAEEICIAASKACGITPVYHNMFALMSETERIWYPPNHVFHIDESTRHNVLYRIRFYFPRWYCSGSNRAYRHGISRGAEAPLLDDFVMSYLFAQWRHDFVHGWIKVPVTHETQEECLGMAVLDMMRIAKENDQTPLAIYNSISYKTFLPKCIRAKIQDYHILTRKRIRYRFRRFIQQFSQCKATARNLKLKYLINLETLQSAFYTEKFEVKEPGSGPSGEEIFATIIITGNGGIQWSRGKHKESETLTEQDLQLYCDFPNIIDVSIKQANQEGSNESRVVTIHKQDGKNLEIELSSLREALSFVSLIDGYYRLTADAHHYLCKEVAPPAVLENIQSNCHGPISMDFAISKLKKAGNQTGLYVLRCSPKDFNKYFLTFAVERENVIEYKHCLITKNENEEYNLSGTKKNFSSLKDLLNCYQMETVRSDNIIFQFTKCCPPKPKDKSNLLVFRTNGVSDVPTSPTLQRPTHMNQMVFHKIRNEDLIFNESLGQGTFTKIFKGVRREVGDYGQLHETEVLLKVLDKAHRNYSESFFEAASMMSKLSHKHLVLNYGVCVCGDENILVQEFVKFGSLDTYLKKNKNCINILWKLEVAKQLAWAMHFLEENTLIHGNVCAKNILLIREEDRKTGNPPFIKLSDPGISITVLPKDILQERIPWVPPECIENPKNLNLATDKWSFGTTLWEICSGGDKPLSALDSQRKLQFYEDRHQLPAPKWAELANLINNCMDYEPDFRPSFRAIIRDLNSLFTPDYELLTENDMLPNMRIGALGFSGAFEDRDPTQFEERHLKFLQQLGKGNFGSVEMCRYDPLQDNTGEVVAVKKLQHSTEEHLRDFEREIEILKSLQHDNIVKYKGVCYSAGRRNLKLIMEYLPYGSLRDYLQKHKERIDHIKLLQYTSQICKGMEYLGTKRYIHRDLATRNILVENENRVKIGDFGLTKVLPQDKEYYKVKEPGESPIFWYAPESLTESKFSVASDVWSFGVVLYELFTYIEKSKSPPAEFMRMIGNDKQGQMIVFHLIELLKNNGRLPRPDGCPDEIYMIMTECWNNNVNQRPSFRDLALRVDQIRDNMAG

FGFR1 = FGFR1 (UniProt P11362); assay: as above
Sequence of FGFR1 (P11362 whole entry, looked up): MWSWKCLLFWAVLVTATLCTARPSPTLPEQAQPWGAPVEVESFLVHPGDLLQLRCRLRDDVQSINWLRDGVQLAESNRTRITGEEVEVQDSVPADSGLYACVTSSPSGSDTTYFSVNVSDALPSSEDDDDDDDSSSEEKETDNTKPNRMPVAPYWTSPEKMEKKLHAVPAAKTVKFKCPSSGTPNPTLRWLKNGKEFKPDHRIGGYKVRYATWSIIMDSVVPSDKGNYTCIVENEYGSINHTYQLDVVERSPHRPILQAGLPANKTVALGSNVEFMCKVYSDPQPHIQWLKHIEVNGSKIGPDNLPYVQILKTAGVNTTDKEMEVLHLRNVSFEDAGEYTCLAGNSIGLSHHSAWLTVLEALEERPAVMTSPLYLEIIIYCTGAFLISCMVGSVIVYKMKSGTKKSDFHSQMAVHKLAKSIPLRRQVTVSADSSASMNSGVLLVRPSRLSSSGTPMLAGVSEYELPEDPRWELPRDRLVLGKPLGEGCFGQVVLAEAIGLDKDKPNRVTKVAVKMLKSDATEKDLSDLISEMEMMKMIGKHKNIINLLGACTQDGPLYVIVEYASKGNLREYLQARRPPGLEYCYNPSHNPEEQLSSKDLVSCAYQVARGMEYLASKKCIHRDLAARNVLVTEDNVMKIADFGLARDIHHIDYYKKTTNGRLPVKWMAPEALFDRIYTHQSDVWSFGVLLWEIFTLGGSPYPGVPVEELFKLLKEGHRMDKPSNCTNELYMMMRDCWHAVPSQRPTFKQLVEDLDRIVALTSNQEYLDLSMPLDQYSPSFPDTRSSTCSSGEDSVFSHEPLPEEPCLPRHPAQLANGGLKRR

Hck = Hck (UniProt P08631); assay: as above
Sequence of Hck (P08631 whole entry, looked up, the tested form may be a part): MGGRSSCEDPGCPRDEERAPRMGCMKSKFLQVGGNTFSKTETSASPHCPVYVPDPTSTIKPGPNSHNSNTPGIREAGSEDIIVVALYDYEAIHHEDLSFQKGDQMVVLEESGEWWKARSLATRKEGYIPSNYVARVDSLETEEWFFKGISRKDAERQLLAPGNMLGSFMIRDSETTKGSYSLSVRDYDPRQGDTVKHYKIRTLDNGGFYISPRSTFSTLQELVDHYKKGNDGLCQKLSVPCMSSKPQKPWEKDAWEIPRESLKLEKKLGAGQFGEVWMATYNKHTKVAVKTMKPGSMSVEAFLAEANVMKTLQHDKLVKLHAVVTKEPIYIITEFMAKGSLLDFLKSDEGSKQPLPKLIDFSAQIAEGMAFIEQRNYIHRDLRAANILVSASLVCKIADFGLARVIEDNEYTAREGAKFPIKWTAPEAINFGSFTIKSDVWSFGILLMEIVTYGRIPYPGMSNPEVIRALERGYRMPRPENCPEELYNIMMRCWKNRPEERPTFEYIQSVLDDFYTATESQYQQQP
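Wherever SH2 binding enrichment of the phosphorylated peptide, bacterial display is given: peptide library displayed on the E. coli surface as eCPX fusions, selected cells deep-sequenced, score is each peptide's frequency after selection divided by its frequency in the input.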
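Wherever phosphorylation enrichment, bacterial display is given: 11-residue human phosphosite peptides and single-mutation variants displayed on the E. coli surface, counted by deep sequencing, each peptide's frequency after selection divided by its frequency in the unselected input library; frequency after pTyr selection over input frequency; kinase dosed for 20-30% of maximal phosphorylation in three min.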

SH2 binding enrichment (Grb2 SH2) | SH2 binding enrichment (SHP2-C SH2) | SH2 binding enrichment (c-Src SH2) | Sequence | phosphorylation enrichment (Fyn) | phosphorylation enrichment (c-Abl (mouse)) | phosphorylation enrichment (EPHB2) | phosphorylation enrichment (FGFR3) | phosphorylation enrichment (c-Src) | phosphorylation enrichment (Fer (mouse)) | phosphorylation enrichment (Fes) | phosphorylation enrichment (AncSZ) | phosphorylation enrichment (MERTK) | phosphorylation enrichment (EPHB1) | phosphorylation enrichment (Jak2) | phosphorylation enrichment (FGFR1) | phosphorylation enrichment (Hck)
1.02 | 0.905 | 0.569 | GDYYRYLAEVA [YWHAG_Y133] | 1.39 | 1.09 | 3.79 | 9.01 | 1.93 | 0.476 | 1.01 | 2.37 | 2.63 | 3.59 | 5.81 | 11.5 | 1.31
0.702 | 0.585 | 0.564 | VHNLDYYKETT [FGFR3_Y647_K650E] | 0.421 | 0.577 | 0.497 | 0.769 | 0.367 | 0.439 | 0.824 | 0.903 | 0.39 | 0.452 | 0.714 | 0.789 | 0.456
0.981 | 0.712 | 0.533 | KDYETYQSFQN [CTNND2_Y1157_P1159S] | 6.69 | 0.875 | 8.93 | 0.691 | 4.92 | 0.651 | 1.03 | 1.33 | 0.427 | 7.69 | 1.03 | 0.551 | 5.74
0.647 | 0.638 | 0.416 | FSNVLYRPRGA [TMIGD2_Y197_YF] | 0.437 | 0.611 | 0.526 | 0.43 | 0.477 | 0.479 | 0.845 | 0.695 | 0.418 | 0.415 | 0.478 | 0.388 | 0.41
0.892 | 0.811 | 0.475 | NTGLDYIKFTW [HRH1_Y386] | 0.39 | 0.902 | 0.742 | 1.26 | 0.612 | 0.402 | 1.31 | 1.37 | 0.605 | 0.647 | 1.92 | 1.64 | 0.495
0.788 | 1.12 | 0.807 | NTYEKYWLFYQ [GATM_Y103_P105L] | 1.5 | 0.8 | 2.94 | 1.65 | 2.23 | 0.874 | 1.39 | 1.26 | 1.78 | 4.77 | 1.18 | 1.7 | 1.36
0.793 | 0.633 | 0.513 | FDRREYSRFEK [ITGB7_Y758_YF] | 0.331 | 0.596 | 0.519 | 0.526 | 0.411 | 0.392 | 0.666 | 0.602 | 0.47 | 0.415 | 0.577 | 0.452 | 0.454
1.22 | 1.24 | 1.7 | CTTIHYNHMCN [TP53_Y234_Y236H] | 0.455 | 0.574 | 0.456 | 0.506 | 0.422 | 0.369 | 0.796 | 0.692 | 0.476 | 0.445 | 0.688 | 0.432 | 0.414
0.705 | 0.599 | 0.444 | SDVDLYQVRTA [PSMD9_Y70] | 1.41 | 0.735 | 0.538 | 0.505 | 1.89 | 0.648 | 0.738 | 0.792 | 0.411 | 0.555 | 0.645 | 0.419 | 4.25
0.717 | 0.61 | 0.478 | PLDGEYFTLPI [TP53_Y327_Q331P] | 9.28 | 25 | 19.1 | 32.2 | 9.02 | 1.66 | 2.87 | 12.6 | 3.81 | 16.6 | 12.1 | 36.5 | 15.7
0.572 | 0.575 | 0.427 | DEEDFYQGSME [ASCC1_Y36] | 0.598 | 0.889 | 0.595 | 0.953 | 0.603 | 0.798 | 1.54 | 1.46 | 0.524 | 0.761 | 1.54 | 0.549 | 0.654
0.877 | 0.648 | 0.401 | ILGLEYSLRLP [HELZ2_Y1304_V1308L] | 0.628 | 0.937 | 0.56 | 0.942 | 1.08 | 0.649 | 1.44 | 1.37 | 0.5 | 0.814 | 1.33 | 0.542 | 0.479
0.592 | 0.702 | 0.515 | PQQLWYTHKKK [UBTF_Y207_E210K] | 0.52 | 0.981 | 1.14 | 0.589 | 0.7 | 0.598 | 1.14 | 1.14 | 1.22 | 0.774 | 1.07 | 0.888 | 0.821
1.02 | 0.697 | 0.685 | SPFEVYVDKSQ [FLNA_Y373] | 0.477 | 0.581 | 0.515 | 0.726 | 0.481 | 0.499 | 1.27 | 1.08 | 0.388 | 0.669 | 0.99 | 0.493 | 0.499
0.971 | 0.688 | 0.481 | SPQAHYRLSAF [ADAMTS9_Y100_S96P] | 0.425 | 0.597 | 0.552 | 0.427 | 0.503 | 0.436 | 0.659 | 0.532 | 0.521 | 0.531 | 0.584 | 0.4 | 0.37
1.28 | 1.36 | 1.15 | VHHLVYHHHHH [CACNA1H_Y519] | 0.546 | 0.963 | 0.696 | 1.23 | 0.602 | 0.896 | 1.99 | 0.777 | 0.52 | 0.725 | 1.66 | 0.55 | 0.65

Sequence | SH2 binding enrichment (Grb2 SH2) | SH2 binding enrichment (SHP2-C SH2) | SH2 binding enrichment (c-Src SH2) | phosphorylation enrichment (Fyn) | phosphorylation enrichment (c-Abl (mouse)) | phosphorylation enrichment (EPHB2) | phosphorylation enrichment (FGFR3) | phosphorylation enrichment (c-Src) | phosphorylation enrichment (Fer (mouse)) | phosphorylation enrichment (Fes) | phosphorylation enrichment (AncSZ) | phosphorylation enrichment (MERTK) | phosphorylation enrichment (EPHB1) | phosphorylation enrichment (Jak2) | phosphorylation enrichment (FGFR1) | phosphorylation enrichment (Hck)
FDAHIYEGRVI [PRKCD_Y64] | 0.913 | 0.654 | 0.713 | 1.68 | 0.636 | 0.609 | 0.574 | 2.08 | 2.12 | 0.91 | 0.929 | 0.47 | 0.544 | 0.639 | 0.546 | 4.25
